# Laboratory results taken from paper PMC10821498, “Radiosynthesis Standardization and Preclinical Assessment of the [^68Ga]Ga-DOTA-Ubiquicidin29-41: A Translational Study Targeting Differential Diagnosis of Infectious Processes” (Pharmaceuticals, 2023).
# Where a SMILES comes first, the peptide text is derived from it. The star is where a group is joined. DOTA = O=C(O)CN1CCN(CC(=O)O)CCN(CC(=O)*)CCN(CC(=O)O)CC1
# Experiments:
# [1] = assay type: physicochemical
# Description: The n-octanol/water partition coefficient (P) of [^68Ga]Ga-DOTA-UBI29-41 was determined using the shake-flask method described elsewhere. A 50 µL aliquot (~2 MBq) of the final product was added to a mixture of n-octanol/water (1:1). The tubes containing the mixture were shaken and centrifugated at 5000× g for 5 min in a Minispin® plus centrifuge (Eppendorf AG, Hamburg, Germany). Then, they were let to rest until complete separation of the phases occurred. After that, samples of 100 μL were taken from each phase. Radioactivity in the aliquots was quantified in an automated Wizard^2™ 3” 2480 gamma counter (PerkinElmer, Shelton, CT, USA). From there, the logarithm of P was determined from the ratio of the activity in organic phase to that in the aqueous phase.
# in vitro = in vitro ADME, rodent; details: rodent, serum
# Description: (§1) SPB was determined via incubation of 50 μL of [^68Ga]Ga-DOTA-UBI29-41 with 450 μL of rodent serum at 37 °C and under gentle shaking at 450× g. At 30 and 60 min, proteins were separated via ultracentrifugation at 14,000× g using Amicon® 10 kDa filters (Merck Millipore, São Paulo, Brazil). The supernatant and pellet were conditioned in microtubes and their radioactivity was quantified in an automated gamma counter. The percentage of SPB was defined by the ratio between the radioactivity in the pellet and the total radioactivity, given by the sum of the radioactivities of the pellet and the supernatant.
# rodent serum proteins = assay: in vitro; assay type: in vitro ADME
# Description: as §1
# [2] = tested on: methicillin-resistant Staphylococcus aureus (MRSA); assay type: in vivo; details: healthy and MRSA-infected BALB/c mice, 30 and 60 min after i.v. administration, n = 5 per time point
# Description: The MRSA bacterial strain was prepared in two steps: pre-inoculum and inoculum. In the pre-inoculum phase, 10 mL of Luria Bertani (LB) medium and 20 μL of ampicillin (500 mg/mL) were added to MRSA (50–100 IU). The mixture was maintained overnight at 37 °C and under shaking at 200× g. In the inoculum phase, 20 mL of LB medium, 500 μL of the pre-inoculum preparation content and 40 μL of ampicillin (500 mg/mL) were combined. This new product was maintained at 37 °C and under shaking at 200× g until it reached an absorbance of 0.8–1.0. This quantification was carried out with an LGI-VS-721N spectrophotometer (LGI Scientific, São Paulo, Brazil). At this point, the content was manually homogenized and 1 mL samples were separated for centrifugation at 14,000× g for 5 min. Supernatants were removed and pellets were resuspended in 100 μL of PBS containing 10^9 CFU.
# Male BALB/c mice aged between 6 and 8 weeks were used in this work. […]
# For the ex vivo biodistribution study, [^68Ga]Ga-DOTA-UBI29-41 was administered intravenously through the caudal vein of the mice (~5 MBq/100 μL) in control and infected animals. […] Organs were removed and weighed, and the radioactivity was quantified in a gamma counter. Percentages of injected activity per gram of organ (% IA/g) were determined, as well as the ratio of target (right tight muscle) to non-target (left tight muscle).
compound,measurement,setting,value
"CSCC[C@H](NC(=O)[C@H](CCCNC(=N)N)NC(=O)[C@H](CCCNC(=N)N)NC(=O)[C@H](CCCCN)NC(=O)[C@H](C)NC(=O)[C@H](CCCNC(=N)N)NC(=O)CNC(=O)[C@@H](NC(=O)CN1CCN(CC(=O)O)CCN(CC(=O)O)CCN(CC(=O)O)CC1)[C@@H](C)O)C(=O)N[C@@H](CCC(N)=O)C(=O)N[C@@H](Cc1ccc(O)cc1)C(=O)N[C@@H](CC(N)=O)C(=O)N[C@@H](CCCNC(=N)N)C(=O)N[C@@H](CCCNC(=N)N)C(=O)O [[^68Ga]Ga-DOTA-UBI29-41, [^68Ga]Ga-DOTA-Ubiquicidin29-41, metal not drawn] ({DOTA}-TGRAKRRMQYNRR-OH)",Log P,[1],–3.63 ± 0.17
same,fraction unbound at 30 min,in vitro,0.398
same,fraction unbound at 60 min,in vitro,0.559
same,Binding to rodent serum proteins (SPB),rodent serum proteins,60%
same,Blood clearance and excretion,[2],fast blood depuration with urinary excretion
